The target of the data set is T1, CasEnd-17 (synthetic construct).
T1 chain: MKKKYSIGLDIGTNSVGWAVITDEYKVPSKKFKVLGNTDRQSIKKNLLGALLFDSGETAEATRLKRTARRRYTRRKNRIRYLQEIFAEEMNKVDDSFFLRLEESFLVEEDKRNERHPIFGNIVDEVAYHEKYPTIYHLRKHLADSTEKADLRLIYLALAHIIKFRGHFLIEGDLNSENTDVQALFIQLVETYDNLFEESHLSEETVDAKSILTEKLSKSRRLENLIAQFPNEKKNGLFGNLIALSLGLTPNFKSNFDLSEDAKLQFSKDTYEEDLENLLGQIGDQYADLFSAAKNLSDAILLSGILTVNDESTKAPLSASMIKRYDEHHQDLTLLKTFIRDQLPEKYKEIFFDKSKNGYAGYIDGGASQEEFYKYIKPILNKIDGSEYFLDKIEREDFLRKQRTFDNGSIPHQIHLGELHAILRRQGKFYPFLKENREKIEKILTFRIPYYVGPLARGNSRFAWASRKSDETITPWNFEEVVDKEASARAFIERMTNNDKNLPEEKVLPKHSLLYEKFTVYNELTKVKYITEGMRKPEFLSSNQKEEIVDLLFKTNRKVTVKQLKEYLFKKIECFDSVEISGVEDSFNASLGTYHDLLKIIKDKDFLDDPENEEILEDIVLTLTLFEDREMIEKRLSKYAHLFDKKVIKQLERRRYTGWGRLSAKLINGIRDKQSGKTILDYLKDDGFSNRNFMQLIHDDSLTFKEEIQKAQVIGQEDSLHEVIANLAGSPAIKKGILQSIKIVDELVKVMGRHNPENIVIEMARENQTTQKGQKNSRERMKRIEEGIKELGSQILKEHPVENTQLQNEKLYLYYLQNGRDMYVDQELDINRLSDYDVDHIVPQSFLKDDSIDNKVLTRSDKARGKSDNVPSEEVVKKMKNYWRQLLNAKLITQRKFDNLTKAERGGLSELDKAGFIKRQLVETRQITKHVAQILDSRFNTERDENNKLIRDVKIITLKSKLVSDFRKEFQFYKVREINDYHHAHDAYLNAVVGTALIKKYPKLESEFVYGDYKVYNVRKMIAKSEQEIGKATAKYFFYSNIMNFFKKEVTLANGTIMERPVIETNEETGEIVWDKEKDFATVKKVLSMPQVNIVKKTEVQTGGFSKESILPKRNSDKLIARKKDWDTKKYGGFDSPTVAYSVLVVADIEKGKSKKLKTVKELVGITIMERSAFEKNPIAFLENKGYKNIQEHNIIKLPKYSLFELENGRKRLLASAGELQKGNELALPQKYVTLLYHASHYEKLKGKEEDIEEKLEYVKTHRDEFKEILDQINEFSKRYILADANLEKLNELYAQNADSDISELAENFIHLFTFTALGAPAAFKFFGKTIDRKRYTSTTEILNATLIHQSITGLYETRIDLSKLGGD
Kind of data set: cell_activity; +++; HEK293T; PAM not stated. The gist of the method:
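BFP-to-GFP conversion via reverse transcriptase fusion with each Cas endonuclease plus template RNA: 200 ng of each plasmid nucleofected into 250,000 BFP-expressing HEK293T cells (program DS-150). Percent GFP+ cells by flow cytometry at day 4 measured editing.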

Results on one molecule are retold here after patent US20250092426, “CAS ENDONUCLEASES AND RELATED METHODS” (Flagship Pioneering Innovations VII, LLC, published 2025).

B1: BFP-to-GFP template RNA ; BFP reporter protospacer (ssRNA ; dsDNA)
RNA: GCCGAAGCACUGCACGCCGUGUUUUAGAGCUAGAAAUAGCAAGUUAAAAUAAGGCUAGUCCGUUAUCAACUUGAAAAAGUGGCACCGAGUCGGUGCACCCUGACGUACGGCGUGCAGUGCUU
DNA 1: GCCGAAGCACTGCACGCCGT
DNA 2: ACGGCGTGCAGTGCTTCGGC
Consider B1, for which the activity is ≥ 100 % of reference.
